# Measurements reported in patent US20170253656A1 (SUTRO BIOPHARMA, published 2017).
# Positions count from the first letter of the chain named.
# T1: hu-CD74 antigen (R&D SYSTEMS catalog #3590-CD-050) (human, UniProt P04233-2 73-232, limits assumed)
# T1 construct: Bought antigen; also called rhCD74; human CD74
# T1 sequence (looked up): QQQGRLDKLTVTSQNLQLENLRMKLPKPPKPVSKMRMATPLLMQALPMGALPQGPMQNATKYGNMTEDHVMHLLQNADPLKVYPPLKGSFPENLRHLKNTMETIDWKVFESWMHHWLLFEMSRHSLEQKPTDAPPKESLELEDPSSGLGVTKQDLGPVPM
# B1: HC 1251_A06 (wt)/LC 1337_A07 (wt) (antibody, human IgG1, kappa, V domains shown)
# VH: QVQLVESGGGVVQPGRSLRLSCAASGFDFSSYGMHWVRQAPDKGLEWVAVIWDDGSDRYYADSVKGRFTISRDNSKNTLYLQMNSLRAEDTAVYYCARGGTRVLGAIHGTDVWGQGTTVTVSS
# VL: DIQMTQSPSSLSASVGDRVTITCRASQGISSWVAWYQQKPEKAPKSLIYGASRLQSGVPSRFSGSGSGTDFTLTISSLQPEDFATYYCQQYHTYPLTFGGGTKVEIKR
# notes: IgG format
# B2: HC 1251_B08 (g)/LC 1275_C10 (wt) (antibody, human IgG1, kappa, V domains shown)
# VH: QVQLVESGGGVVQPGRSLRLSCAASGFNFSDYGMHWVRQAPGKGLEWVAVIWYDGSISYYADSVKGRFTISRDNSKNTLYLQMNSLRAEDTAVYYCARGGTVEHGAVYGTDVWGQGTTVTVSS
# VL: B1 VL with I29V, V33L, G50S, S52R, R53Y, H92N, T93L
# notes: IgG format
# B3: HC 1251_A06 (g)/LC 1337_A07 (wt) (antibody, human IgG1, kappa, V domains shown)
# VH: B1 VH with D42G
# VL: B1 VL
# notes: IgG format
# B4: HC 1251_B08 (g)/LC 1275_C10 (g) (antibody, human IgG1, kappa, V domains shown)
# VH: B2 VH
# VL: B1 VL with L11V, I29V, V33L, E41G, S46L, G50S, S52R, R53Y, H92N, T93L
# notes: IgG format
# B5: HC 1251_B08 (g)/LC 1337_A07 (g) (antibody, human IgG1, kappa, V domains shown)
# VH: B2 VH
# VL: B1 VL with L11V, E41G, S46L
# notes: IgG format
# B6: HC 1251_B08 (g)/LC 1337_A09 (wt) (antibody, human IgG1, kappa, V domains shown)
# VH: B2 VH
# VL: B1 VL with S30G, V33L, G50A, S52D
# notes: IgG format
# B7: HC 1251_B08 (g)/LC 1337_A10 (g) (antibody, human IgG1, kappa, V domains shown)
# VH: B2 VH
# VL: B1 VL with L11V, E41G, S46L, A51S, H92N
# notes: IgG format
# B8: HC 1251_B08 (wt)/LC 1337_A07 (wt) (antibody, human IgG1, kappa, V domains shown)
# VH: B2 VH with G42D, T117A
# VL: B1 VL
# notes: IgG format
# B9: HC 1251_B08 (g)/LC 1337_A09 (g) (antibody, human IgG1, kappa, V domains shown)
# VH: B2 VH
# VL: B1 VL with L11V, S30G, V33L, E41G, S46L, G50A, S52D
# notes: IgG format
# B10: HC 1251_B08 (wt)/LC 1337_A09 (g) (antibody, human IgG1, kappa, V domains shown)
# VH: B2 VH with G42D, T117A
# VL: B1 VL with L11V, S30G, V33L, E41G, S46L, G50A, S52D
# notes: IgG format
# B11: HC 1251_B08 (g)/LC 1337_A10 (wt) (antibody, human IgG1, kappa, V domains shown)
# VH: B2 VH
# VL: B1 VL with A51S, H92N
# notes: IgG format
# B12: HC 1251_A06 (g)/LC 1275_C10 (wt) (antibody, human IgG1, kappa, V domains shown)
# VH: B1 VH with D42G
# VL: B1 VL with I29V, V33L, G50S, S52R, R53Y, H92N, T93L
# notes: IgG format
# B13: HC 1251_A06 (wt)/LC 1337_A09 (g) (antibody, human IgG1, kappa, V domains shown)
# VH: B1 VH
# VL: B1 VL with L11V, S30G, V33L, E41G, S46L, G50A, S52D
# notes: IgG format
# B14: HC 1251_A06 (wt)/LC 1337_A10 (wt) (antibody, human IgG1, kappa, V domains shown)
# VH: B1 VH
# VL: B1 VL with A51S, H92N
# notes: IgG format
# B15: HC 1251_A06 (g)/LC 1337_A10 (wt) (antibody, human IgG1, kappa, V domains shown)
# VH: B1 VH with D42G
# VL: B1 VL with A51S, H92N
# notes: IgG format
# B16: HC 1251_A06 (wt)/LC 1337_A07 (g) (antibody, human IgG1, kappa, V domains shown)
# VH: B1 VH
# VL: B1 VL with L11V, E41G, S46L
# notes: IgG format
# B17: HC 1251_A06 (wt)/LC 1337_A09 (wt) (antibody, human IgG1, kappa, V domains shown)
# VH: B1 VH
# VL: B1 VL with S30G, V33L, G50A, S52D
# notes: IgG format
# B18: HC 1251_A06 (wt)/LC 1275_C10 (wt) (antibody, human IgG1, kappa)
# heavy: not shown
# light: MDIQMTQSPSSLSASVGDRVTITCRASQGVSSWLAWYQQKPEKAPKSLIYSARYLQSGVPSRFSGSGSGTDFTLTISSLQPEDFATYYCQQYNLYPLTFGGGTKVEIKRTVAAPSVFIFPPSDEQLKSGTASVVCLLNNFYPREAKVQWKVDNALQSGNSQESVTEQDSKDSTYSLSSTLTLSKADYEKHKVYACEVTHQGLSSPVTKSFNRGEC
# notes: IgG format
# B19: HC 1251_A06 (g)/LC 1337_A10 (g) (antibody, human IgG1, kappa, V domains shown)
# VH: B1 VH with D42G
# VL: B1 VL with L11V, E41G, S46L, A51S, H92N
# notes: IgG format
# B20: HC 1251_A06 (wt)/LC 1337_A10 (g) (antibody, human IgG1, kappa, V domains shown)
# VH: B1 VH
# VL: B1 VL with L11V, E41G, S46L, A51S, H92N
# notes: IgG format
# B21: HC 1251_B08 (wt)/LC 1337_A07 (g) (antibody, human IgG1, kappa, V domains shown)
# VH: B2 VH with G42D, T117A
# VL: B1 VL with L11V, E41G, S46L
# notes: IgG format
# B22: HC 1251_A06 (g)/LC 1337_A07 (g) (antibody, human IgG1, kappa, V domains shown)
# VH: B1 VH with D42G
# VL: B1 VL with L11V, E41G, S46L
# notes: IgG format
# B23: HC 1251_A06 (wt)/LC 1275_C10 (g) (antibody, human IgG1, kappa, V domains shown)
# VH: B1 VH
# VL: B1 VL with L11V, I29V, V33L, E41G, S46L, G50S, S52R, R53Y, H92N, T93L
# notes: IgG format
# B24: HC 1251_B08 (wt)/LC 1337_A10 (wt) (antibody, human IgG1, kappa, V domains shown)
# VH: B2 VH with G42D, T117A
# VL: B1 VL with A51S, H92N
# notes: IgG format
# B25: HC 1251_B08 (wt)/LC 1275_C10 (wt) (antibody, human IgG1, kappa, V domains shown)
# VH: B2 VH with G42D, T117A
# VL: B1 VL with I29V, V33L, G50S, S52R, R53Y, H92N, T93L
# notes: IgG format
# B26: HC 1251_B08 (wt)/LC 1275_C10 (g) (antibody, human IgG1, kappa, V domains shown)
# VH: B2 VH with G42D, T117A
# VL: B1 VL with L11V, I29V, V33L, E41G, S46L, G50S, S52R, R53Y, H92N, T93L
# notes: IgG format
# B27: HC 1251_A06 (g)/LC 1337_A09 (wt) (antibody, human IgG1, kappa, V domains shown)
# VH: B1 VH with D42G
# VL: B1 VL with S30G, V33L, G50A, S52D
# notes: IgG format
# B28: HC 1251_A06 (g)/LC 1275_C10 (g) (antibody, human IgG1, kappa, V domains shown)
# VH: B1 VH with D42G
# VL: B1 VL with L11V, I29V, V33L, E41G, S46L, G50S, S52R, R53Y, H92N, T93L
# notes: IgG format
# B29: HC 1251_B08 (wt)/LC 1337_A10 (g) (antibody, human IgG1, kappa, V domains shown)
# VH: B2 VH with G42D, T117A
# VL: B1 VL with L11V, E41G, S46L, A51S, H92N
# notes: IgG format
# B30: HC 1251_A06 (g)/LC 1337_A09 (g) (antibody, human IgG1, kappa, V domains shown)
# VH: B1 VH with D42G
# VL: B1 VL with L11V, S30G, V33L, E41G, S46L, G50A, S52D
# notes: IgG format
# B31: HC 1251_B08 (g)/LC 1337_A07 (wt) (antibody, human IgG1, kappa, V domains shown)
# VH: B2 VH
# VL: B1 VL
# notes: IgG format
# B32: HC 1251_B08 (wt)/LC 1337_A09 (wt) (antibody, human IgG1, kappa, V domains shown)
# VH: B2 VH with G42D, T117A
# VL: B1 VL with S30G, V33L, G50A, S52D
# notes: IgG format
# Biological target: T1, hu-CD74 antigen (R&D SYSTEMS catalog …)
# Assay: SPR (Biacore T200), IgG captured on anti-human Fc, rhCD74 analyte
# Experimental: Kinetic binding experiments were performed at 25° C. using 1×HBS-EP+buffer. Kinetic data was collected by injecting test and control antibodies at concentrations of 10, 5 and 2.5 μg/mL for 12 s at a flow rate of 10 μl/min on flow cells 2, 3 and 4 respectively, followed by a buffer wash for 30 s at the same flow rate. Kinetic characterization of antibody samples was carried out with 8 concentrations of a 1:2 dilution series of rhCD74 antigen (R&D Systems) and 2 injections of 0 nM antigen (buffer only). […] Between each ligand capture and analyte binding cycle, regeneration was carried out using 2 injections of 3M MgCl₂ for 30 seconds at 30 μL/min, followed by a 30 second buffer wash step.
Kd [nM],koff [s⁻¹],kon [M⁻¹ s⁻¹],Binder
0.168,0.0001,598000,B1
0.862,0.000155,180000,B2
0.166,9.4e-05,568000,B3
0.332,0.000102,306000,B4
0.239,7.76e-05,325000,B5
0.64,0.000106,166000,B6
0.254,9.97e-05,392000,B7
0.211,8.01e-05,379000,B8
0.252,7.77e-05,309000,B9
0.347,0.000115,332000,B10
0.385,0.00012,312000,B11
0.341,0.000177,520000,B12
0.18,0.00011,610000,B13
0.205,0.000174,847000,B14
0.188,9.03e-05,479000,B15
0.205,0.000136,660000,B16

Kd [nM],koff [s⁻¹],kon [M⁻¹ s⁻¹],Binder
0.156,9.19e-05,588000,B17
0.245,0.00016,654000,B18
0.389,0.000148,380000,B19
0.411,0.000235,571000,B20
0.611,0.000142,232000,B21
0.168,7.1e-05,424000,B22
0.348,0.000166,478000,B23
0.235,0.000115,491000,B24
0.191,0.000119,623000,B25
0.437,0.000124,284000,B26
0.189,8.63e-05,457000,B27
0.209,0.000148,705000,B28
0.957,0.000183,191000,B29
0.131,7.26e-05,552000,B30
0.349,9.23e-05,265000,B31
0.108,0.000116,1.07e+06,B32
